Data from article doi:10.1101/2022.12.21.521430 (bioRxiv, 2022).

Target: Gallus gallus TRPV4 isolated ankyrin repeat domain (residues 135-382) (Gallus gallus, UniProt A0A1D5PXA5 135-382)
Assay: cross-linking

Chain of Gallus gallus TRPV4 isolated ankyrin repeat domain (residues 135-382) (A0A1D5PXA5 135-382): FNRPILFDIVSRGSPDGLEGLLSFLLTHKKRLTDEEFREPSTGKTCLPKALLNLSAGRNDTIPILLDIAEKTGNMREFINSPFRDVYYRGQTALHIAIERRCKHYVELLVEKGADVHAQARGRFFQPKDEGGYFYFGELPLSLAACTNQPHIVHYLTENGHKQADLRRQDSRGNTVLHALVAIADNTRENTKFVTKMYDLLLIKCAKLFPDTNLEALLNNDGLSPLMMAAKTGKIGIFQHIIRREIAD

B1: Gallus gallus TRPV4 isolated intrinsically disordered region (residues 2-134) (domain or fragment, UniProt A0A1D5PXA5 2-134, looked up)
chain: ADPEDPRDAGDVLGDDSFPLSSLANLFEVEDTPSPAEPSRGPPGAVDGKQNLRMKFHGAFRKGPPKPMELLESTIYESSVVPAPKKAPMDSLFDYGTYRQHPSENKRWRRRVVEKPVAGTKGPAPNPPPILKV
  binding result: binds
